Experimental data: the nanobody polyreactivity screen of Harvey et al. (2022)

Experiment: yeast display, Sf9 membrane polyspecificity reagent, FACS + sequencing; frameworks hold sequencing errors
Summary of the method: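 After 36–48 hours of galactose induction, yeast (Saccharomyces cerevisiae BJ5465) displaying a synthetic nanobody library were stained at 4 °C for 1 hour with 10% biotinylated, detergent-solubilized Sf9 membrane reagent. Streptavidin microbeads enriched the stained cells before FACS sorting into low and high (top ~1%) gates on anti-HA and streptavidin fluorescence. Each clone's polyreactivity label reflects its gate of origin.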

Sequence | polyreactivity (PSR sort gate)
QVQLVESGGGLVQAGGSLRLSCAASGRTFWANAMGWYRQAPGKERELVAAINYSGGRTYYADSVKGRFTISRDNAKNTVYLQMNSLKPEDTAVYYCNVVHGGAISDYWGQGTQVTVSS | high polyreactivity
QVQLVESAGGLVQAAGSLRLSCAASGSIFSTNAMGWYRQAPGKERELVAAITYRGRTFYADSVKGRFTISRDNAKNTVYLQMNSLKPEDTAVYYCNAVGISWFGYLKAYVYWGKGTQVTVSS | high polyreactivity
QVQLVESGGGLVQAVGSLRLSCAASGSTFGEYAMGWYRQAPGKERELVAVITSDDNTYYADSVKGRFTISRDNAKNTVYLQMNSLKPEDTAVYYCATDDRRRFKYWGQGTQVTVSS | high polyreactivity
QVQLVESGGGLVQAGGSLRLSCAASGRTFFKNAMGWYRQAPGKERELVASISSRSGTTYYADSVKGRFTISRDNAKNTVYLQMNSLKPEDTAVYYCAADIYWWRGSTHGMDYWGQGTQVTVSS | high polyreactivity
QVQLVESGGGLVQAGGSLRLSCAASGNTFYGYAMGWYRQAPGKERELVASITLSGDSTYYADSVKGRFTISRDNAKNTVYLQMNSLNPEETAVYYFNAQFTPRYWGGYDSWGQGTQVTVSS | low polyreactivity
QVQLVESGGGLVQAGGSLRLSCAASGRIFVYNVMGWYRQAPGKERELVAAISWGTGSTYADSVKGRFTISRDNAKNTVYLQMHSLKPEDTAVYYCAADSFIPPYDHWGQGTQVTVSS | low polyreactivity
QVQLVESGGGLVQAGGSLRVSCAASGRTFLSYTMGWYRPAPGKERQLVARISASGGSTYYADSVKGRFTISRDNAKITVYLQMNSLKPEDTAVYYCARVPYYLYYVTRPYDYWGQGTLVTVSS | low polyreactivity
QFQLVESGGGLVQAGGSLRLSCAASGRIYGYYALGWYRQAPGQERELVATITFGGGSTYYTDSVKGRFTISRDNAKNTVSLQMNSLKPEDTALYYCAADSGYLGIYGDEYSWGHGTQVTVSS | low polyreactivity
QDQLVESGGGLVQAGGSLRLSFAASGATFKRYAMGWYRQAPGKERELVATINSGTSTNYADSVKGRFTISRDNAKNTVYLQMNSLKPEDTAVYYCAKTFRRSVGGYGYDYWGQGTQVTVSS | low polyreactivity
QVQLQESGGGLVQAGGSLRLSCAASGTIFYKDDMGWYRQAPGKEREFVAGIDRGGTTNCAGSVKGRFTISRDNAKNTVYLQMISLKPEDTAVYYCAAYYPDIYPFIYRGQGTQVTVSS | high polyreactivity
QVQLVESGGGLVQAGGSLRLSCAASGRIFRSYTMGWYRQAPGKERELVAAISKTGSRTYYADSVKGRFTISRDNAKNTVYLQMNSLKPEDTAVYYCAALFVHSYRDDYWGQGTQVTVSS | high polyreactivity
QVQLVESGGGLVQAGGSLRLSCAASGSIFLVYAMGWYRQAPGKERELVAVISRGGITNYADSVKGRFTISGDNAKNTVYLQMNSLKPEDTAVYYCAAEPRPSWSRYTYGYWGQGTQVTVSS | low polyreactivity
QVQLVESGGGLVQAGGSLRLSCAASGRTFWVYAMGWNRQATGKERELVATISKSAGITSYADSVKGRFTFSRDNAKNTVYLQMNSLKPEDTAVYYCAADKSYRRVYYWGQGTQVTVSS | low polyreactivity
QVQLVESGGGLVQAGGTLRLSCSASGRTFQVYAMGWYRQAPGKERELVAGITRAGSTYYADSVKGRFTISRDNAKNTVYLQMNSLKPEDTAVYYCAASRWHGYNYWGQGTQVTVSS | high polyreactivity
QVQLVESAGGLVQAGGSLRLSCAASGRTFDAYAMGWYRQAPGKERELVATITSGGGTYYADSVKGRFTISRDNAKNTVYLLMNSLTPEDTAVYYCNKRYVVSRKYDYWGQGTQVTVSS | low polyreactivity
QVQLVESGGGLVQAGGSLRLSCAASGTIFYINAMGWYRQAPGKERELVAAIRSGGSTNYADSVKGRFTISRDNAKNTVYLQMNSLKPEDTAVYYCNARSRSYVPYYYWGQGTQVTVSS | high polyreactivity
QVQLVESGGGLVQAGGSLRLSCAASGFTFTYYAMGWYRQAPGKERELVAAISWRGTSTFYADSVKGRFTISRDNAKNTVYLQMNSLKPEDTAVYYCATEKWVGYKYWSSRKYDYWGQGTQVTVSS | high polyreactivity
QVQLVESGGGLVQAGGSLRLSCAASGRIFIDYAMAWYRQAPGKESELVATNTSSGGSTYYADSVKGRFTISRDNAKNTVYLLMNSLNPEDTAVYFCNKEGSYDYDYWGQGTQVTVSS | low polyreactivity
QVQLVESGGGLVQAGGSLRLSCAASGRIYNYYAMGWYIPAPGKERELVAAISSSGGRTYYADSVKGRFTISRDNAKNTVYLQMNSLKPEDTAVYYCAAYDSLRYSTYDYWGQGTQVTVSS | high polyreactivity
QVQLVESGGGLVQAGGSLRLSCAASGSIFYAYAMGWYRQAPGKESELVAVISRGGITNYADSVKGRFTISRDNAKNTVYLQMNSLKPEDTAVYYCAAATSAWGYLRRYGYWGQGTQVTVSS | low polyreactivity
QVQLVESGGGLVQAGGSLRLSCAASGFIFGYYAMGGYRQAPGKERELVAAISSSGTRTYYADSVKGRFTISRDNAKNTVYLQMNSLKPEDTAVYYCAVTTAYSGAFYTGEYWGQGTQVTVSS | high polyreactivity
QVQIVESGGGLVQAGGSLRLSCAASGRTFYFYVMGWYRQAPGKERELVAAISWSGTSTYYADSVKGRFTISRDNAKNTVYLQMNSLKPEDTAVYYCNGITRYDYWGQGTQVTVSS | low polyreactivity

Sequence | polyreactivity (PSR sort gate)
QVQLVESGGGLVQAGGSLRLICAASGSIFDYYDMGWYRQAPGKERELVAANNWSGGITYYADSVKGRFTISRDYAKNTVYLQMNSLKPEDTEVYFCAADWYQWVYSSSITSFDYWGQGTQVTVSS | low polyreactivity
QVQLVESGGGLVQAGGSLRLSCDASGRTFYVYAMGWYRQAPGKERELVAAISSSGGSTYYADSVKGRFTISRDNAKNTVYLQMNSLKPEDTAVYYCAVVTPRYYGDTKYDYWGQGTQVTVSS | high polyreactivity
QVQLVESGGGLVQAGGSLRLSCAASGSTFTRYAMGWYRQAPGKERELVAAISSGGSTYADSVKGRFTISRDNAKNTVYLQMNSLKPEDTAVYYCAARLYTYPKGKYWGQGTQVTVSS | high polyreactivity
QVQLVESGGVLVQAGGSLRLSCAASGSTFTDYAMGWYRQAPGKERELVAAITDSGGRTYYADSVKGRFTISRDNAKNTVYLQMNSLKPEDTAVYYCATEDDRWYYWGQGTQVTVSS | high polyreactivity
QVQLVESGGGLVQAGGSLRLSCAASGLIFYINAMGWYRQAPGKERELVAAISSGGSTNYADSVKGRFTISRDNAKNTVYLQMNSLKPEDTAVYYCARDAYLPRIADGDGRYELVDYWGQGTQVTVSS | low polyreactivity
QVQLVESGGGLVHAGGSLRLSCAASGFTFSYNARGWYRQAPGKERELVASITRSGGRTYYADSVKGRFTISRDNAKNTVYLQMNSLKPEDTGVYYCAAVWYPWLSSIFDYWGQGTQVTVSS | high polyreactivity
QVQIVESGGGLVQAGGSLRLSCAASGFIFDFYTMGWYRQAPGKERELVAAITWSGDSTYYADSVKGRFTISRDNAKNTVYLQMNSLKPEDTGVYYCAADWWGVWYFDYDYWGQGTQVTVSS | low polyreactivity
QLQLVESGGGLVQAGGSLRLSCAASGSIFADYAMGWYRQAPGKEREFVAAITRSGTSTYYADSVKGRFTISRDNAKNTVYFQMNSLKPEDTAGYYCAKTEVLLYLYTLDYWGQGTQVTVSS | low polyreactivity
QVQLVESGGGLVQAGGSLRLSCAASGLTFPPNAMGWYRQAPGKEREFVAVISSGGGSTYYADSVMGRFTISRDHAKNTVYLQMNSLKPEDTAVYNCATEYQDGDTEYYYWGQGTQVTVSS | low polyreactivity
QVQLVESGGGLVQAGGSLRLSCAASGSPSQPYAMGWYRQAPGKVRELVASITNGGITYYADSVKGRFPISRDNANNTVELQMNSLKPEDTAVYYCARTGPSAYWEFDYWGQGTQVTVSS | low polyreactivity
QVQLVESGGGLVQAGGSLRLSCAASGSIFAKNAMGWYRQAPGKERELVAAIDLNGGSTYYADSVKGRFTISRDNAKNTVYLQMNSLKPEDTAVYYCADYYGHSSVIRSSPEYDSWGQGTQVTVSS | low polyreactivity
QVQLVESGGGLVQAGGSLRLSCAASGRTFFLYAMGWYRQAPGKEREFVATISYGGGSTYYADSVKGRFTISRDNAKNTVYLQMNSLKPDDTAVYYCNALNTSQYAEGTSDYDGNMGYWGQGTQVTVSS | low polyreactivity
QVQLVESGGGLVQAGGSLRVSSAASGRIFSIYAMGWYRQAPGKERELVAAISFRGTSTYADSVKGRFTISRDNAKNTVYLQMNSLKPEDTAVYFCAVSGFDVLWPSLGGELDYWGQGTQVTVSS | low polyreactivity
QVQLVESGGGLVQAGGSLRLSCAASGITFYYYAMGWYRQAPGKERELVAAISRSGGRTYYADSVKGRFTISRDNAKNTVYLQMNSLNPEDTAVYYCAAVRYQGGDSSIEYDYWGQGTQVTLSS | high polyreactivity
QVQLVESGGGLVQAGGSLRLSCAASGITFYPYAMGWYRQAPGKERELVAAITLSTGTTYYADSVKGRFTISRDNAKNTVYLQMNSLKPEDTAVYYCAVEGYWYAGWYAMDYWGQGTQVTVSS | low polyreactivity
QVQLVESGGGLVQAGGSLRLSCAASGRIFGVYAMGWYRQAPGKERELFADISWSGSGTYADSVKGRFTISRDNAKNTVYLQMNSLKPEDTAVYYCNVDPAQIHAGYVGYDYWGQGTQVTVSS | low polyreactivity
QVQLVESGGGLVQAGGSLRISCAASGRISVVNAMGWYRQAPGKEREMVAAIRRASTNYADSVKGRFTISRDNAKNTVYLQMNSLKPEDTAVYFCAARVYGINIFEYWGQGTQVTVSS | high polyreactivity
QVQRVESGGGLVQAGGTLRLSCAASGFIFGYYAMGWSRQAPGKERELVAAISRSGGRTYYADSVKGRFTISRANAKNTVYLQLNSLKPEDTAVYYCAKSGYQYADDMDYLGQGTQVTVSS | high polyreactivity
QVQLVESGGGLVQAGGTLRLSCSASGRTFPGYAMGWYRQAPGKERELVAVISLSGGRTNYADSVKGRFTISRDNAKNTVFLLMNSLKPEDTAVYYCAGRYHGHSNDYWGQGTQVTVSS | low polyreactivity
QVQLVESGGGLVQAGGSLRLSCAASGFTIWWYAMRWYRQATGKERELVATITSGGRTYYADSVKGRFTISRDNAKNTDYLQMNSLKPEDTAVYYCAAESEVGYVYDPMYYWGQGTQVTVSS | high polyreactivity
QVQLVESGGGIVQAGGILRLSCAASGRISVFNDMGWYRQAPGKERELVAAITSGGSTKYADSVKGRFTISRDNAKNTVYLQMNSLKPEDTAVYYCASLYQFHGKIWDGDYWGQGTQVNVSS | low polyreactivity
